Experimental data: patent publication US20100184651

Test system: VIP-BH3 BID fusion protein
Sequence (chain, as listed by the source): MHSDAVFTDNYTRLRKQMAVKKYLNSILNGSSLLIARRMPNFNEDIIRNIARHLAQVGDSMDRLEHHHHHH

Chain of recombinant human cathepsin D (chain, as listed by the source): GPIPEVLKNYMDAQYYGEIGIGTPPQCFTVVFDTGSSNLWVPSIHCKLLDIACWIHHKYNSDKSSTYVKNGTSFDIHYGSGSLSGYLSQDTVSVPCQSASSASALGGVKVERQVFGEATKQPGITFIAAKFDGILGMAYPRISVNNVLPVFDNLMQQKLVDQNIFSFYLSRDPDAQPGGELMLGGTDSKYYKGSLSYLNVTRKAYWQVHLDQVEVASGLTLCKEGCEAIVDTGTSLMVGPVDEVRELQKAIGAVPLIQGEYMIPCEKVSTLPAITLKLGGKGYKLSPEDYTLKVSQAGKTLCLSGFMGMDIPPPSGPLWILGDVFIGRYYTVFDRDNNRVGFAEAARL

Substance: recombinant human cathepsin D
- cleavage of fusion protein by cathepsin D at ˜400:1 (w/w), followed by mass spectrometry: The first cleavage occurred at the linker by around 30 minutes of treatment with the protease
